To fix the notation:
B1: library; a variant is named by its letters at X, in order (parent)
chain: MNIQIGELAKRTACPVVTIRFYEQEGLLPPPGRSRGNFRLYGEEHVERLQFIRHCRSLDMPLSXVRTLLSYRKRPDQDCGEVXMLLDEHXRQVESRIGALLELXHXLVELREACSGARPAQSCGILQGLSDCVCDTRGTTAHXSD

Variants of B1 are the subject of data set [1]. As to the kind of experiment: sfGFP reporter fluorescence (15 h) (µM FITC); higher = higher leak. The settings on record: library round: Round 3b; ligand: none. The protocol: (§1)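 Cell-free biosensing: 1 µL Echo-assembled CFE reactions with linear PbrR variant templates (5 nM) and pPbrR-sfGFP reporter, with 1 µM Pb, 30 µM Zn or no ligand; endpoint sfGFP fluorescence after 15 h at 30 °C calibrated as µM FITC. Round 3b rational combinatorial PbrR mutants; 3 biological replicates.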

Data set [2] covers variants of B1. As to the kind of experiment: sfGFP reporter fluorescence (15 h) (µM FITC); higher = stronger transcriptional activation. The settings on record: library round: Round 3b. The protocol:
as §1

± gives the standard deviation of the averaged measurements.

Consider KNATAR, for which the sfGFP reporter fluorescence in data set [1] was determined as 0.0517 ± 0.005; in data set [2] (ligand: 1 µM Pb) it was 0.302 ± 0.012; in data set [2] (ligand: 30 µM Zn), 0.406 ± 0.066.
Consider KNATAT, for which the sfGFP reporter fluorescence in data set [1] turned out to be 0.0532 ± 0.0029; in data set [2] (ligand: 1 µM Pb), 0.305 ± 0.021; in data set [2] (ligand: 30 µM Zn) it was 0.514 ± 0.057.
With KNATHT, the figures for the sfGFP reporter fluorescence in data set [1], in data set [2] (ligand: 1 µM Pb) and in data set [2] (ligand: 30 µM Zn) were 0.0681 ± 0.0016, 0.443 ± 0.015 and 0.764 ± 0.13, respectively.
Turning to KNATHR, the sfGFP reporter fluorescence in data set [1] worked out at 0.0571 ± 0.0019; in data set [2] (ligand: 1 µM Pb), 0.412 ± 0.041; in data set [2] (ligand: 30 µM Zn), 0.602 ± 0.08.
The like results for KIITHR were, in that order, 0.0506 ± 0.0028, 0.485 ± 0.067 and 0.0734 ± 0.0022.
With KIITHT, the sfGFP reporter fluorescence came out at 0.0492 ± 0.0029 in data set [1], 0.471 ± 0.031 in data set [2] (ligand: 1 µM Pb) and 0.0728 ± 0.0057 in data set [2] (ligand: 30 µM Zn).
For the variant DIAVAP, the sfGFP reporter fluorescence in data set [1] came to 0.0451 ± 0.0067; in data set [2] (ligand: 1 µM Pb), 0.0922 ± 0.0043; in data set [2] (ligand: 30 µM Zn), 0.0441 ± 0.0071.
With DIAVAT, the sfGFP reporter fluorescence in data set [1] was determined as 0.0441 ± 0.0047; in data set [2] (ligand: 1 µM Pb), 0.096 ± 0.0083; in data set [2] (ligand: 30 µM Zn), 0.0457 ± 0.0025.
Consider DIAVAR, for which the values for the sfGFP reporter fluorescence in data set [1], in data set [2] (ligand: 1 µM Pb) and in data set [2] (ligand: 30 µM Zn) were 0.0429 ± 0.0036, 0.102 ± 0.0042 and 0.047 ± 0.0015, respectively.
Consider KFITER, for which the values for the sfGFP reporter fluorescence in data set [1], in data set [2] (ligand: 1 µM Pb) and in data set [2] (ligand: 30 µM Zn) were 0.0486 ± 0.00051, 0.435 ± 0.016 and 0.0763 ± 0.005, respectively.
As for KFITET, the sfGFP reporter fluorescence in data set [1] is 0.0451 ± 0.0028; in data set [2] (ligand: 1 µM Pb), 0.3727 ± 0.0019; in data set [2] (ligand: 30 µM Zn), 0.0737 ± 0.0037.
KFITEP: the values for the sfGFP reporter fluorescence in data set [1], in data set [2] (ligand: 1 µM Pb) and in data set [2] (ligand: 30 µM Zn) were 0.0482 ± 0.0055, 0.36 ± 0.014 and 0.0694 ± 0.0043, respectively.
For the variant DNAVET, the sfGFP reporter fluorescence was determined as 0.0438 ± 0.0014 in data set [1], 0.0536 ± 0.0031 in data set [2] (ligand: 1 µM Pb) and 0.0603 ± 0.0036 in data set [2] (ligand: 30 µM Zn).
DNAVER: the sfGFP reporter fluorescence came to 0.0468 ± 0.0035 in data set [1], 0.0511 ± 0.0015 in data set [2] (ligand: 1 µM Pb) and 0.062 ± 0.0046 in data set [2] (ligand: 30 µM Zn).
Take KIATER: the results for the sfGFP reporter fluorescence in data set [1], in data set [2] (ligand: 1 µM Pb) and in data set [2] (ligand: 30 µM Zn) were 0.06373 ± 0.00019, 1.25 ± 0.078 and 0.0603 ± 0.0035, respectively.
The like results for KIATEP were, in that order, 0.0672 ± 0.0044, 1 ± 0.062 and 0.0643 ± 0.0007.
Take KIATET: the sfGFP reporter fluorescence in data set [1] was 0.0659 ± 0.0015; in data set [2] (ligand: 1 µM Pb), 1.15 ± 0.065; in data set [2] (ligand: 30 µM Zn) it was 0.0663 ± 0.0026.
The corresponding values for KNIVER are 0.115 ± 0.006, 0.585 ± 0.046 and 1.4 ± 0.2.
As to KNIVET, the sfGFP reporter fluorescence turned out to be 0.112 ± 0.0075 in data set [1], 0.514 ± 0.055 in data set [2] (ligand: 1 µM Pb) and 1.2 ± 0.06 in data set [2] (ligand: 30 µM Zn).
The corresponding values for DNAVAR are 0.0458 ± 0.0027, 0.0485 ± 0.0025 and 0.0579 ± 0.0046.
DNAVAT: the results for the sfGFP reporter fluorescence in data set [1], in data set [2] (ligand: 1 µM Pb) and in data set [2] (ligand: 30 µM Zn) were 0.0419 ± 0.0015, 0.0454 ± 0.0015 and 0.0637 ± 0.0046, respectively.
The like results for KIAVHR were, in that order, 0.0703 ± 0.001, 1.42 ± 0.17 and 0.0998 ± 0.0092.
Consider KIAVHP, for which the sfGFP reporter fluorescence in data set [1] is 0.0656 ± 0.0055; in data set [2] (ligand: 1 µM Pb), 1.12 ± 0.13; in data set [2] (ligand: 30 µM Zn), 0.0894 ± 0.011.
Turning to KIAVHT, the sfGFP reporter fluorescence in data set [1] worked out at 0.0616 ± 0.0046; in data set [2] (ligand: 1 µM Pb), 0.924 ± 0.066; in data set [2] (ligand: 30 µM Zn), 0.0797 ± 0.0069.
With DIATAP, the sfGFP reporter fluorescence in data set [1] was 0.0413 ± 0.0051; in data set [2] (ligand: 1 µM Pb) it was 0.087 ± 0.01; in data set [2] (ligand: 30 µM Zn), 0.0433 ± 0.0057.
The corresponding values for DIATAR are 0.0427 ± 0.0029, 0.0781 ± 0.014 and 0.0423 ± 0.0034.
For DIATAT, the figures for the sfGFP reporter fluorescence in data set [1], in data set [2] (ligand: 1 µM Pb) and in data set [2] (ligand: 30 µM Zn) were 0.0409 ± 0.0016, 0.112 ± 0.0062 and 0.0458 ± 0.00085, respectively.
KNAVHT: the sfGFP reporter fluorescence in data set [1] came out at 0.0573 ± 0.0042; in data set [2] (ligand: 1 µM Pb) it was 0.322 ± 0.0077; in data set [2] (ligand: 30 µM Zn) it was 0.602 ± 0.057.
In the case of KNAVHR, the sfGFP reporter fluorescence in data set [1] turned out to be 0.0557 ± 0.0039; in data set [2] (ligand: 1 µM Pb) it was 0.37 ± 0.021; in data set [2] (ligand: 30 µM Zn), 0.644 ± 0.054.
Take DNIKHP: the sfGFP reporter fluorescence was determined as 0.043 ± 0.0052 in data set [1], 0.0535 ± 0.0032 in data set [2] (ligand: 1 µM Pb) and 0.281 ± 0.018 in data set [2] (ligand: 30 µM Zn).
Regarding DNATAR, the sfGFP reporter fluorescence stood at 0.0439 ± 0.0034 in data set [1], 0.0477 ± 0.0023 in data set [2] (ligand: 1 µM Pb) and 0.0627 ± 0.0048 in data set [2] (ligand: 30 µM Zn).
Take DNATAT: the sfGFP reporter fluorescence in data set [1] was 0.0419 ± 0.0058; in data set [2] (ligand: 1 µM Pb) it was 0.0459 ± 0.0022; in data set [2] (ligand: 30 µM Zn), 0.059 ± 0.0073.
With KIITAT, the sfGFP reporter fluorescence in data set [1] turned out to be 0.0466 ± 0.0011; in data set [2] (ligand: 1 µM Pb), 0.39 ± 0.032; in data set [2] (ligand: 30 µM Zn) it was 0.05466 ± 0.00019.
Regarding KIITAP, the sfGFP reporter fluorescence is 0.0473 ± 0.0044 in data set [1], 0.308 ± 0.022 in data set [2] (ligand: 1 µM Pb) and 0.051 ± 0.005 in data set [2] (ligand: 30 µM Zn).
In the case of DFITAT, the sfGFP reporter fluorescence in data set [1] was 0.0436 ± 0.0017; in data set [2] (ligand: 1 µM Pb), 0.0559 ± 0.004; in data set [2] (ligand: 30 µM Zn), 0.0439 ± 0.00085.
Consider DFITAR, for which the sfGFP reporter fluorescence in data set [1] came to 0.0422 ± 0.0057; in data set [2] (ligand: 1 µM Pb), 0.0635 ± 0.0015; in data set [2] (ligand: 30 µM Zn), 0.0455 ± 0.0024.
As to DFIVAT, the sfGFP reporter fluorescence was determined as 0.0456 ± 0.0052 in data set [1], 0.0992 ± 0.004 in data set [2] (ligand: 1 µM Pb) and 0.0496 ± 0.0011 in data set [2] (ligand: 30 µM Zn).
As to DIATHT, the sfGFP reporter fluorescence in data set [1] was 0.0414 ± 0.0019; in data set [2] (ligand: 1 µM Pb), 0.103 ± 0.0068; in data set [2] (ligand: 30 µM Zn), 0.0451 ± 0.0014.
The corresponding values for DIATHR are 0.0464 ± 0.003, 0.0989 ± 0.0066 and 0.0456 ± 0.0036.
The corresponding values for DIAVEP are 0.0409 ± 0.0007, 0.0827 ± 0.0059 and 0.04514 ± 0.00039.
As to DIAVET, the sfGFP reporter fluorescence in data set [1] is 0.0432 ± 0.0019; in data set [2] (ligand: 1 µM Pb), 0.07 ± 0.0044; in data set [2] (ligand: 30 µM Zn), 0.0437 ± 0.002.
On to DIAVER, for which the sfGFP reporter fluorescence in data set [1] was found to be 0.0436 ± 0.004; in data set [2] (ligand: 1 µM Pb), 0.0866 ± 0.0039; in data set [2] (ligand: 30 µM Zn), 0.0484 ± 0.0041.
On to KFIVEP, for which the sfGFP reporter fluorescence worked out at 0.0475 ± 0.004 in data set [1], 0.567 ± 0.017 in data set [2] (ligand: 1 µM Pb) and 0.107 ± 0.013 in data set [2] (ligand: 30 µM Zn).
Take KFIVER: the sfGFP reporter fluorescence was determined as 0.0558 ± 0.0015 in data set [1], 0.491 ± 0.0094 in data set [2] (ligand: 1 µM Pb) and 0.0916 ± 0.0098 in data set [2] (ligand: 30 µM Zn).

Values taken from the supplement of paper PMC12783771.
